Common to all, as to type: cell-based, mouse
Test [1] deals with ATDC5 cells. The test is described as follows: Cell proliferation of ATDC5 cells in the presence or absence of AdipoR1 blocker. On the procedure: ATDC5 cells were seeded into a 12-well plate at a cell density of 1×10^4/well and cultured in the presence or absence of 10 μg/ml AdipoR1 blocker (GeneTex) and in the presence or absence of 100 ng/ml recombinant human CTRP6 (Aviscera Bioscience) for 2 days (all n=4). As a medium, a HAM's F-12 medium containing 5% FBS and 1% penicillin/streptomycin was used.
Furthermore, 100 ng/ml adiponectin (BioVendor), 100 ng/ml AdipoRon (AdipoGen), or 50 ng/ml recombinant human CTRP3 (Aviscera Bioscience) was used instead of 100 ng/ml recombinant human CTRP6 to culture in the same manner as described above (all n=4). Meanwhile, when the AdipoRon was used, a culture period was 1 day.
After culturing, the number of cells was counted with a hemocytometer.

Test [2] deals with ATDC5 cells. The test is described as follows: Effect of MAPK inhibitor on cell proliferation of chondrocyte. Conditions: FIG. 3C. On the procedure:
ATDC5 cells were seeded into a 48-well plate at a cell density of 2×10^4/well and cultured in the presence or absence of 50 ng/ml recombinant human CTRP6 (Aviscera Bioscience) for 2 days. A HAM's F-12 medium containing 5% FBS and 1% penicillin/streptomycin was used as a medium, and a carrier (DMSO), 1 μM ERK1/2 inhibitor (U0126, Sigma), 1 μM JNK inhibitor (SP600125, Sigma), or 1 μM p38 inhibitor (SB239063, Sigma) was further added thereto (all n=4).
After 2 day-culture, the number of cells was counted with a hemocytometer.

Test [3] concerns ATDC5 cells. Put plainly: Cell proliferation of ATDC5 cells with adiponectin receptor siRNA introduced, recombinant human CTRP3. The following applies: 50 ng/ml, 2 days, FIG. 6A. On the procedure: AdipoR1 siRNA, AdipoR2 siRNA, control siRNA-1, AdipoR3 siRNA, AdipoR4 siRNA, or control siRNA-2 was introduced (transfected) into ATDC5 cells in the same manner as in Test Example 4 (1).
Forty-eight hours after the introduction of the siRNAs, the ATDC5 cells were seeded into a 48-well plate at a cell density of 2×10^4/well and cultured in the presence or absence of 50 ng/ml recombinant human CTRP3 (Aviscera Bioscience) for 2 days (all n=4). After that, the number of cells was counted with a hemocytometer.

The subject of test [4] is ERK1/2. The test is described as follows: Phosphorylation of MAPK, western blotting. The following applies: ATDC5; 10 ng/ml; 1, 5, 15 or 30 min; FIG. 3B. On the procedure:
ATDC5 cells were seeded into a 60 mm Petri dish at a cell density of 1×10^6/well and cultured in a serum-free HAM's F-12 medium for 4 hours. Then, the resultant was washed with PBS and then cultured in a serum-free HAM's F-12 medium containing 10 ng/ml recombinant human CTRP6 (Aviscera Bioscience) for 1 min, 5 min, 15 min, or 30 min. Then, the cells were washed with a phosphatase-inhibiting buffer supplemented with PhosSTOP (Sigma) and then lysed with a lysis buffer (0.1% TritonX-100, 100 mM NaCl, 50 mM Tris-HCl (pH 7.5)).
Then, the resultant cell lysate was subjected to electrophoresis on a 12.5% SDS-PAGE gel and proteins were transferred onto a PVDF membrane. The membrane onto which the proteins had been transferred was blocked by shaking in 5% BSA/TBS at room temperature for 1 hour. After blocking, the membrane was shaken in the presence of a primary antibody (rabbit monoclonal antibody) at room temperature for 1 hour to thereby undergo a primary antibody reaction. […] Intensity of each band was quantified with ImageJ software (NIH).
For orientation: A western blot detects proteins with antibodies after separation by electrophoresis.

In test [5] the test system is ERK1/2. Put plainly: ERK phosphorylation in ATDC5 cells with adiponectin receptor siRNA introduced, western blotting. The following applies: 10 ng/ml, 15 min. How it is done: ATDC5 cells into which the siRNA had been introduced were seeded into a 60 mm Petri dish at a cell density of 1×10^6/well and cultured in a serum-free HAM's F-12 medium for 4 hours. Then, the cells were washed with PBS and then cultured in a serum-free HAM's F-12 medium containing 10 ng/ml recombinant human CTRP6 (Aviscera Bioscience) for 15 min. Then, the cells were washed with a phosphatase-inhibiting buffer supplemented with PhosSTOP (Sigma) and then lysed with a lysis buffer (0.1% TritonX-100, 100 mM NaCl, 50 mM Tris-HCl (pH 7.5)). Western blotting analysis was performed in the same manner as in Test Example 3 (2).

Test [6] has as its system primary chondrocytes of Clqtnf6−/− mice. Put plainly: Chondrogenesis of primary chondrocytes (Alcian blue staining). The following applies: 0, 2.5, 5, 10 μg/ml, 7 days, FIG. 2B. On the procedure:
Costal cartilage tissues from neonates (5 to 6 day-old) of the Clqtnf6^−/− mice and the wild-type mice were enzymatically digested with DMEM containing 0.5 mg/ml collagenase D to thereby obtain primary chondrocytes. Then, 2×10^5 cells were suspended into 10 μL of DMEM containing 10% FCS, seeded into a 24-well plate, and cultured at 37° C. for 2 hours (both n=3). Then, DMEM containing 10% FCS was added thereto at a volume of 500 μL per well and culturing was continued for 7 days. Then, the cells were fixed with 10% neutral buffered formalin, washed with 0.1 N HCl, and then stained with a 1% Alcian blue 8GX solution (Sigma-Aldrich) in order to confirm chondrogenesis.
In the same manner as described above, primary chondrocytes were obtained from the Clqtnf6^−/− mice, and then 2×10^5 cells were suspended into 10 μL of DMEM containing 10% FCS, seeded into a 24-well plate, and cultured at 37° C. for 2 hours. Then, DMEMs containing 10% FCS and various concentrations (0, 2.5, 5, 10 μg/ml; all n=3) of recombinant human CTRP6 (Aviscera Bioscience) were added thereto at a volume of 500 μL per well and culturing was continued for 7 days. Then, the cells were fixed with 10% neutral buffered formalin, washed with 0.1 N HCl, and then stained with a 1% Alcian blue 8GX solution (Sigma-Aldrich) in order to confirm chondrogenesis.

Test [7] has as its system ATDC5 cells. The test is described as follows: Cell proliferation of ATDC5 cells with adiponectin receptor siRNA introduced, recombinant human CTRP6. Conditions: 100 ng/ml, 1 day. On the procedure:
ATDC5 cells were seeded into a 24-well plate at a cell density of […] and cultured in a HAM's F-12 medium containing 2.5% FBS for 24 hours. After culturing, 30 pmol of AdipoR1 siRNA, 30 pmol of AdipoR2 siRNA, 30 pmol of control siRNA-1, 6 pmol of AdipoR3 siRNA, 6 pmol of AdipoR4 siRNA, or 6 pmol of control siRNA-2 was introduced (transfected) thereinto and culturing was continued for 48 hours. Lipofectamine RNAiMAX (Invitrogen) was used to introduce the siRNAs.
Meanwhile, the AdipoR3 siRNA, the AdipoR4 siRNA, and the control siRNA-2 were purchased from IDT Teck (TriTECTa RNAi Kit). Base sequences of the AdipoR1 siRNA, the AdipoR2 siRNA, and the control siRNA-1 were as follows:
Forty-eight hours after the introduction of the siRNAs, the ATDC5 cells were seeded into a 48-well plate at a cell density of 2×10^4/well and cultured in the presence or absence of 100 ng/ml recombinant human CTRP6 (Aviscera Bioscience) for 1 day (all n=4). After that, the number of cells was counted with a hemocytometer.

Test [8] deals with ATDC5 cells. Put plainly: Cell proliferation of chondrocyte line, cell count with hemocytometer. The following applies: 0, 100, 500 ng/ml, 4 and 7 day-culture, FIG. 3A. On the procedure:
In Test Example 3, a function of CTRP6 was analyzed using a mouse chondrocyte line ATDC5.
ATDC5 cells were seeded into a 12-well plate at a cell density of 5×10^4/well and cultured in the presence of various concentrations (0, 100, 500 ng/ml; all n=3) of recombinant human CTRP6 (Aviscera Bioscience). As a medium, a HAM's F-12 medium containing 5% FBS and 1% penicillin/streptomycin was used.
After 4 and 7 day-culture, the number of cells was counted with a hemocytometer.

Setting [9] is: 100 ng/ml, 2 days, FIGS. 5A, 5B.

This note sets out measurements from patent US20200397827A1, “CHONDROCYTE PROLIFERATION PROMOTER, CHONDROCYTE PROLIFERATION PROMOTION METHOD, SCREENING METHOD FOR CHONDROCYTE PROLIFERATION PROMOTERS” (Tokyo University of Science Foundation, priority 2018, published 2020).

In the case of `O=C(COc1ccc(C(=O)c2ccccc2)cc1)NC1CCN(Cc2ccccc2)CC1` [AdipoRon, reference compound], the “number of cells (cell proliferation)” value with ATDC5 cells [1] (100 ng/ml, culture period 1 day, FIG. 5C) is recorded as “facilitated cell proliferation”.
In the case of `N#CC(=C(/N)Sc1ccccc1N)/C(C#N)=C(/N)Sc1ccccc1N` [ERK1/2 inhibitor, U0126, reference compound], the “number of cells (cell proliferation) with MAPK inhibitor added” value in the test with ATDC5 cells [2] (1 μM inhibitor, presence or absence of 50 ng/ml recombinant human CTRP6, 2 days) was “inhibited cell proliferation”.

B1: recombinant human CTRP3: recombinant human CTRP3 (Aviscera Bioscience), C1q/TNF-related protein family; amino acid sequence SEQ ID NO: 2 (protein, listed as Homo sapiens)
chain: MLWRQLIYWQLLALFFLPFCLCQDEYMESPQTGGLPPDCSKCCHGDYSFRGYQGPPGPPGPPGIPGNHGNNGNNGATGHEGAKGEKGDKGDLGPRGERGQHGPKGEKGYPGIPPELQIAFMASLATHFSNQNSGIIFSSVETNIGNFFDVMTGRFGAPVSGVYFFTFSMMKHEDVEEVYVYLMHNGNTVFSMYSYEMKGKSDTSSNHAVLKLAKGDEVWLRMGNGALHGDHQRFSTFAGFLLFETK
B1: the “number of cells (cell proliferation), AdipoR2 siRNA introduced” value with ATDC5 cells [3] is “facilitation of cell proliferation was not confirmed”.

B2: recombinant human CTRP6: recombinant human CTRP6 (Aviscera Bioscience), C1q/TNF-related protein family; amino acid sequence SEQ ID NO: 3 (protein, listed as Homo sapiens)
chain: MQWLRVRESPGEATGHRVTMGTAALGPVWAALLLFLLMCEIPMVELTFDRAVASGCQRCCDSEDPLDPAHVSSASSSGRPHALPEIRPYINITILKGDKGDPGPMGLPGYMGREGPQGEPGPQGSKGDKGEMGSPGAPCQKRFFAFSVGRKTALHSGEDFQTLLFERVFVNLDGCFDMATGQFAAPLRGIYFFSLNVHSWNYKETYVHIMHNQKEAVILYAQPSERSIMQSQSVMLDLAYGDRVWVRLFKRQRENAIYSNDFDTYITFSGHLIKAEDD
Take B2: the “phosphorylation of MAPKs (ERK1/2)” value in the test on ERK1/2 [4] is reported as “facilitated phosphorylation of ERK1/2”. Besides, the “phosphorylation of ERK1/2, AdipoR1 siRNA introduced” value with ERK1/2 [5] (ATDC5 with AdipoR1 siRNA, FIG. 4C) is “phosphorylation of ERK1/2 was not facilitated”. The “phosphorylation of ERK1/2, AdipoR4 siRNA introduced” value with ERK1/2 [5] (ATDC5 with AdipoR4 siRNA, FIG. 4D) is listed as “phosphorylation of ERK1/2 was not facilitated”. Moreover, the “chondrogenesis (intensity of Alcian blue stained cells)” value in test [6] was “chondrogenesis was promoted in a recombinant human CTRP6 concentration-dependent manner”. Besides, in the test with ATDC5 cells [7] (ATDC5 with AdipoR1 siRNA, FIG. 4A), the “number of cells (cell proliferation), AdipoR1 siRNA introduced” value is recorded as “facilitation of cell proliferation was not confirmed”. Also, the “number of cells (cell proliferation), AdipoR4 siRNA introduced” value with ATDC5 cells [7] (ATDC5 with AdipoR4 siRNA, FIG. 4B) is given as “facilitation of cell proliferation was not confirmed”. Also, the “number of cells (cell proliferation)” value with ATDC5 cells [2] (50 ng/ml, 2 days) was “facilitated cell proliferation”; in the test on ATDC5 cells [8], “facilitated cell proliferation”; with ATDC5 cells [1] (setting [9]), “facilitated cell proliferation”; with ATDC5 cells [1] (2 days, second statement of b158 (FIG. 5D, 50 ng/ml recombinant human CTRP3)), “also facilitated”.

B3: adiponectin: adiponectin (BioVendor), protein of the CTRP family; human amino acid sequence SEQ ID NO: 1 (protein, listed as Homo sapiens)
chain: MLLLGAVLLLLALPGHDQETTTQGPGVLLPLPKGACTGWMAGIPGHPGHNGAPGRDGRDGTPGEKGEKGDPGLIGPKGDIGETGVPGAEGPRGFPGIQGRKGEPGEGAYVYRSAFSVGLETYVTIPNMPIRFTKIFYNQQNHYDGSTGKFHCNIPGLYYFAYHITVYMKDVKVSLFKKDKAMLFTYDQYQENNVDQASGSVLLHLEVGDQVWLQVYGEGERNGLYADNDNDSTFTGFLLYHDTN
For the molecule B3, the “number of cells (cell proliferation)” value in the test with ATDC5 cells [1] (setting [9]) was “facilitated cell proliferation”.
